Reference: patent US20030159166A1 (ORTHO MCNEIL PHARMACEUTICAL, published 2003)

Target: T1, recombinant soluble HLA-DM (human, UniProt P28067 27-233; P28068 19-218)
T1 construct: extracellular domain; Expressed in Drosophila Schneider-2 cells, purified on Ni-NTA agarose and by gel filtration
Assay: in vitro complex formation, isolation on Ni-NTA agarose by the His tag of DM

B1: DO-Fc fusion protein (extracellular domains of DOA and DOB fused to the Fc domain of human IgG1) (Fc fusion)
MHC II alpha: TKADHMGSYGPAFYQSYGASGQFTHEFDEEQLFSVDLKKSEAVWRLPEFGDFARFDPQGGLAGIAAIKAHLDILVERSNRSRAINVPPRVTVLPKSRVELGQPNILICIVDNIFPPVINITWLRNGQTVTEGVAQTSFYSQPDHLFRKFHYLPFVPSAEDVYDCQVEHWGLDAPLLRHWELQVPIPPPDAME
MHC II beta: TDSPEDFVIQAKADCYFTNGTEKVQFVVRFIFNLEEYVRFDSDVGMFVALTKLGQPDAEQWNSRLDLLERSRQAVDGVCRHNYRLGAPFTVGRKVQPEVTVYPERTPLLHQHNLLHCSVTGFYPGDIKIKWFLNGQEERAGVMSTGPIRNGDWTFQTVVMLEMTPELGHVYTCLVDHSSLLSPVSVEWRAQSEYSWRK
notes: extracellular domain; Expressed in Drosophila Schneider-2 cells, purified on protein A sepharose; also called HLA-DO; not shown: human IgG1 Fc domain
B1: binds.
